In patent publication US20230201308A1, “TREATMENT OF CORONAVIRUS INFECTION WITH […]” (Eiger Biopharmaceuticals, Inc., priority 2020, published 2023):
Like-named read-outs stand apart in the source and are kept apart here.

System: SARS-CoV-2
[1] = Treated within 5 days of symptom onset, n=800 vs placebo 879
[2] = Unvaccinated population, n=143 vs placebo 176
[3] = final, treatment ≤3 days of symptom onset
[4] = high-risk patients, pooled Brazil+Toronto
[5] = intention-to-treat, N = 931 vs placebo N = 1018
[6] = treatment within 3 days of symptom onset
[7] = unvaccinated patients, treatment within 3 days of symptoms
[8] = ≤3 days of symptoms before treatment, preliminary

B1: pegylated interferon lambda-1a (protein)
chain: MKPTTTGKGCHIGRFKSLSPQELASFKKARDALEESLKLKNWSCSSPVFPGNWDLRLLQVRERPVALEAELALTLKVLEAAAGPALEDVLDQPLHTLHHILSQLQACIQPQPTAGPRPRGRLHHWLHRLQEAPKKESAGCLEASVTFNLFRLLTRDLKYVADGNLSLRTSTHPEST
modifications: PEG
notes: 180 mcg subcutaneous injection
B1 was tested, and the “Hospitalization or ER (any duration) for COVID-19, RR (95% CrI) vs placebo” value [1] was 0.73 (0.56, 0.94), the “Hospitalization or ER ≥6 h for COVID-19, % of patients” value [1] was “(2.5%)” and the “Hospitalization or ER ≥6 h for COVID-19, Pr (Superiority)” value [1] was 1.000. The “Hospitalization or ER ≥6 h for COVID-19, RR (95% CrI) vs placebo” value [1] was 0.45 (0.26, 0.72), the “Death due to COVID-19, % of patients” value [2] was 0 (0%) and the “Death due to COVID-19, RR (95% CrI) vs placebo” value [2] was 0.51 (0.02, 6.47). The “Death or hospitalization due to COVID-19, % of patients” value [2] was 4.2%, the “Death or hospitalization due to COVID-19, RR (95% CrI) vs placebo” value [2] was 0.49 (0.19, 1.12) and the “Hospitalization for COVID-19, % of patients” value [2] was 4.2%. The “Hospitalization for COVID-19, RR (95% CrI) vs placebo” value [2] was 0.49 (0.19, 1.12), the “Hospitalization or ER (any duration) for COVID-19, % of patients” value [2] was 16.1% and the “Hospitalization or ER (any duration) for COVID-19, Pr (Superiority)” value [2] was 0.806. The “Hospitalization or ER (any duration) for COVID-19, RR (95% CrI) vs placebo” value [2] was 0.82 (0.50, 1.29), the “Hospitalization or ER ≥6 h for COVID-19, % of patients” value [2] was 4.2% and the “Hospitalization or ER ≥6 h for COVID-19, Pr (Superiority)” value [2] was 0.967. For the same molecule, the “Hospitalization or ER ≥6 h for COVID-19, RR (95% CrI) vs placebo” value [2] was 0.46 (0.18, 1.05), the “deaths in the arm” value (early treated patients) was “no deaths” and the “COVID-19 deaths in the treatment arm” value (final ITT) was “one”. The “Hazard ratio, COVID-19-related hospitalization or death (all-cause death)” value (final ITT) was 0.59, the “hazard ratio, COVID-19 death” value (final ITT) was 0.22 and the “hazard ratio, risk of hospitalization” value (final ITT) was 0.57. For the same molecule, the “relative risk, COVID-19-related hospitalization alone” value (final ITT) was 0.57, the “risk reduction, COVID-19-related hospitalization or all-cause death” value (final ITT) was 41% and the “relative risk, primary outcome” value (final ITT, 931 vs placebo 1018) was 0.49. The “participants experiencing a primary outcome event, %” value (final ITT, n=931) was 2.7%, the “participants experiencing a primary outcome event, count” value (final ITT, n=931) was 25 of 931 and the “absolute risk reduction (with 95% Bayesian credible intervals) plotted, FIG. 14” value (final ITT, patients receiving peginterferon lambda) was 0.028 (0.018, 0.039). For the same molecule, the “relative risk, primary outcome” value (final, treatment within 3 days of symptom onset) was 0.42, the “Hazard ratio, COVID-19-related hospitalization or death” value [3] was 0.35 and the “risk reduction, COVID-19-related hospitalization or death” value [3] was 65%. The “RR, All-cause mortality or Hospitalization” value (high-risk patients, Brazil) was 0.69, the “RR, Death or Hospitalization due to COVID-19” value (high-risk patients, Brazil) was 0.63 and the “RR, Hospitalization or ER visit>6 hours” value (high-risk patients, Brazil) was 0.49. The “probability of superiority (Pr), Hospitalization or ER visit>6 hours” value (high-risk patients, Brazil) was 0.990, the “Pr, Hospitalization or ER visit>6 hours” value [4] was 0.990 and the “RR, All-cause mortality or Hospitalization” value [4] was 0.69. For the same molecule, the “RR, Death or Hospitalization due to COVID-19” value [4] was 0.63, the “RR, Hospitalization or ER visit>6 hours” value [4] was 0.49 and the “participants with primary outcome event, count” value (human, in vivo) was 23/929. For the same molecule, the “relative risk, primary outcome” value (human, in vivo) was 0.47, the “Days on mechanical ventilation: mean” value (intention-to-treat, N = 931) was 10.2 days and the “Death due to COVID-19: percentage of patients” value (intention-to-treat, N = 931) was “(0.1%)”. The “Death due to COVID-19: total (no. of patients)” value (intention-to-treat, N = 931) was 1, the “Death or hospitalization due to COVID-19: percentage of patients” value (intention-to-treat, N = 931) was “(2.4%)” and the “Death or hospitalization due to COVID-19: total (no. of patients)” value (intention-to-treat, N = 931) was 22. The “Hospitalization for COVID-19: percentage of patients” value (intention-to-treat, N = 931) was “(2.3%)”, the “Hospitalization for COVID-19: total (no. of patients)” value (intention-to-treat, N = 931) was 21 and the “Hospitalization or ER (any duration) for COVID-19: percentage of patients” value (intention-to-treat, N = 931) was “(10.6%)”. The “Hospitalization or ER (any duration) for COVID-19: total (no. of patients)” value (intention-to-treat, N = 931) was 99, the “Hospitalization or ER visit >6 h for COVID-19: percentage of patients” value (intention-to-treat, N = 931) was “(2.7%)” and the “Hospitalization or ER visit >6 h for COVID-19: total (no. of patients)” value (intention-to-treat, N = 931) was 25. For the same molecule, the “Days on mechanical ventilation: MD (95% CrI), estimated treatment effect” value [5] was −4.47 (−6.89, 3.09), the “Days on mechanical ventilation: Probability of Superiority (MD)” value [5] was 90.5 and the “Days to death for COVID-19: HR (95% CI), estimated treatment effect” value [5] was 0.22 (0.01, 1.64). The “Days to death for COVID-19: Probability of Superiority (HR)” value [5] was 90.7, the “Days to death or hospitalization due to COVID-19: HR (95% CrI), estimated treatment effect” value [5] was 0.59 (0.35, 0.97) and the “Days to death or hospitalization due to COVID-19: Probability of Superiority (HR)” value [5] was 98.1. The “Days to hospitalization for COVID-19: HR (95% CrI), estimated treatment effect” value [5] was 0.57 (0.33, 0.95), the “Days to hospitalization for COVID-19: Probability of Superiority (HR)” value [5] was 98.5 and the “Days to hospitalization or ER visit >6 h for COVID-19: HR (95% CrI), estimated treatment effect” value [5] was 0.47 (0.29, 0.73). For the same molecule, the “Days to hospitalization or ER visit >6 h for COVID-19: Probability of Superiority (HR)” value [5] was over 99.9, the “Death due to COVID-19: Probability of Superiority (RR)” value [5] was 86.9 and the “Death due to COVID-19: RR (95% CrI), estimated treatment effect” value [5] was 0.39 (0.05, 1.95). For the same molecule, the “Death or hospitalization due to COVID-19: Probability of Superiority (RR)” value [5] was 97.7, the “Death or hospitalization due to COVID-19: RR (95% CrI), estimated treatment effect” value [5] was 0.61 (0.36, 0.99) and the “Hospitalization for COVID-19: Probability of Superiority (RR)” value [5] was 98.3. For the same molecule, the “Hospitalization for COVID-19: RR (95% CrI), estimated treatment effect” value [5] was 0.58 (0.34, 0.96), the “Hospitalization or ER (any duration) for COVID-19: Probability of Superiority (RR)” value [5] was 98.1 and the “Hospitalization or ER (any duration) for COVID-19: RR (95% CrI), estimated treatment effect” value [5] was 0.78 (0.61, 0.99). For the same molecule, the “Hospitalization or ER visit >6 h for COVID-19: Probability of Superiority (RR)” value [5] was over 99.9, the “Hospitalization or ER visit >6 h for COVID-19: RR (95% CrI), estimated treatment effect” value [5] was 0.49 (0.30, 0.76) and the “relative risk, primary outcome” value (per protocol analysis (25/931 vs 43/825)) was 0.52. For the same molecule, the “fewer COVID-19-related deaths than placebo” value (preliminary ITT) was 75%, the “hazard ratio, COVID-19-related hospitalization” value [6] was 0.35 and the “relative risk, all-cause death” value [6] was 0.19. For the same molecule, the “risk reduction in all-cause death” value [6] was 81%, the “risk reduction of COVID-19-related hospitalization” value [6] was 65% and the “Hazard ratio vs. placebo” value [7] was 0.11. The “risk (hazard) reduction, COVID-19-related hospitalization or death” value [7] was 89%, the “Risk Reduction (95% BCI), Hospitalizations or Deaths” value [8] was 60% (17-82%) and the “Risk Reduction (95% BCI), Hospitalizations or ER visits” value [8] was 67% (19-79%). The “Risk Reduction (95% BCI), Hospitalizations or Deaths” value (≤7 days of symptoms before treatment, preliminary) was 39% (1-64%).
